{
  "source": "the nanobody polyreactivity screen of Harvey et al. (2022)",
  "data": [
    {"assay": "yeast display, Sf9 membrane polyspecificity reagent, FACS + sequencing; frameworks hold sequencing errors", "method_in_brief": "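Galactose induction of a Saccharomyces cerevisiae BJ5465 synthetic nanobody display library ran 36–48 hours. The cells were then stained for 1 hour at 4 °C with 10% biotinylated, detergent-solubilized Sf9 membrane reagent, pulled down on streptavidin microbeads and FACS-sorted into low and high (top ~1%) gates on expression and reagent-binding fluorescence. Labels for polyreactivity follow the gate of origin.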", "values": [
      {"sequence": "QVQLVESGGGLVQAGGSLRLSCAASGFIFPPYDMGWYRQAPGKERELVADITYSDGITYYADSVKGRFTISRDNAMNTVYLQMNSLKPEDTAVYYCNADYSRIGPEVDYWGQGTQVTVSS", "polyreactivity (PSR sort gate)": "low polyreactivity"},
      {"sequence": "QVQLVESGGGLVQAGGSLRLSCAASGFIFPRYAKGWYRQAPGKERELVAAISKSGGRTYYADSEKGGFTISRDYAKNTFYLQMNSLKPEDTAVYYCADGRISRFSRYYYWGQGTHVTVSS", "polyreactivity (PSR sort gate)": "high polyreactivity"},
      {"sequence": "QVQLVESGGGLVQAGGSLRLSCAASGFIFPRYAMGWSRQRPGKESELVAAISRSGGITRYADSVKGRFTISRDNAKNTVYLQRNSLKPEDTAVYYCAAYIQGWVTAEWVRDDYWGKGTQVTVSS", "polyreactivity (PSR sort gate)": "high polyreactivity"},
      {"sequence": "QVQLVESGGGLVQAGGSLRLSCAASGFIFPRYVMGWSRQAPGKERELVAAINSDISTNYADSVKGRFTISRDNAKNTVYLQMNSLKPEDTAVYDCAAERWDDRWEFDYWGQGTQVTVSS", "polyreactivity (PSR sort gate)": "low polyreactivity"},
      {"sequence": "QVQLVESGGGLVQAGGSLRLSCAASGFIFPSYAMGWYRQAPGKERELVATISKRVATTYYADSVKGRFTISRDNAKNTVYLQMNSLKPEDTAVYYCAAAYRGYARHDYWGQGTQVTVSS", "polyreactivity (PSR sort gate)": "high polyreactivity"},
      {"sequence": "QVQLVESGGGLVQAGGSLRLSCAASGFIFPTNVMGWYRQAPGKEREFVASITWRGGGTYYADSVKGRFTISRDNAKNTVYVQMNSLKPEDTAVYYCAAGRSWSSYWKYDYWGQGTQVTVSS", "polyreactivity (PSR sort gate)": "low polyreactivity"},
      {"sequence": "QVQLVESGGGLVQAGGSLRLSCAASGFIFPWYAMGWYRQAPGKERELVAAISSSGGRTYYADSVKGRFTISRDNAKNTVYLQMNSLKPEDTAVYYCNVANGLSQVYRYNYWGQGTQVTVSS", "polyreactivity (PSR sort gate)": "high polyreactivity"},
      {"sequence": "QVQLVESGGGLVQAGGSLRLSCAASGFIFPYDAMGWYRQAPGKERELVAAITYRDGSTYYADSVKGRFTISRDNAKNTVYLQMNSLKPEDTAVYYCAADRYVYWDLYGYWGQGTQVTVSS", "polyreactivity (PSR sort gate)": "low polyreactivity"},
      {"sequence": "QVQLVESGGGLVQAGGSLRLSCAASGFIFPYYAMGLYRQAPGKEREMVAAITFSATRTYYADSVKGRFTISRDNAKNTVYLQMNSLKPEDTADYYCKARGGVYGSYFEFNYWGQGSQVTVSS", "polyreactivity (PSR sort gate)": "low polyreactivity"},
      {"sequence": "QVQLVESGGGLVQAGGSLRLSCAASGFIFPYYAMGWYRQAPGKERELVAAISQSGGSTYYADSVKGRFTISRDNAKNTVYLQMNSLKPEDTAVYYCAKYIPSYHDGDYWGQGTQVTVSS", "polyreactivity (PSR sort gate)": "low polyreactivity"},
      {"sequence": "QVQLVESGGGLVQAGGSLRLSCAASGFIFPYYAMGWYRQAPGKERELVAAITSSGGRTYYADSVKGRFTISRDNAKNTVYFQMNSLKPEDTAVYYCAAYYLTPTDVEYDYWGQGTQVTVSS", "polyreactivity (PSR sort gate)": "high polyreactivity"},
      {"sequence": "QVQLVESGGGLVQAGGSLRLSCAASGFIFQAYAMGWYRQAPGKERELVAAISSSGGSTYYADSVKGRFTISRDNAKNTVYLQMNSLKPEDTAVYYCAARSRRVSLIRDSYGYWGQGTQVTVSS", "polyreactivity (PSR sort gate)": "high polyreactivity"},
      {"sequence": "QVQLVESGGGLVQAGGSLRLSCAASGFIFQPYAMGWYRQAPGKERELVAAITSRGGRTYYADSVQGRFTICRDNAKNTVYLQMNSLKPEDTSVYYCNADIYASEYYYWGQGTQVTVSS", "polyreactivity (PSR sort gate)": "low polyreactivity"},
      {"sequence": "QVQLVESGGGLVQAGGSLRLSCAASGFIFQPYSLGWYRQAPGKERELVAAITSRGGRTYYADSVKGRFTISRDNAKNTVYLQMNSLKPEDTAVYYCNADIYASEYYYWGQGTQVTVSS", "polyreactivity (PSR sort gate)": "low polyreactivity"},
      {"sequence": "QVQLVESGGGLVQAGGSLRLSCAASGFIFQQNAMGWYIQAPGKERELVAAISRSGGRTYYADSVKGRFTISRDNAKNTVYLQMNSLKPEDSAVYYCATRFYTKAFEYDYWGQGTQVTVSS", "polyreactivity (PSR sort gate)": "high polyreactivity"},
      {"sequence": "QVQLVESGGGLVQAGGSLRLSCAASGFIFQRYAMGWYRQAPGKERELVAAITRTGGRTYYSDSVKGRFTISRDNAKNTVYLQMNSLKPEDTAVYYCAADRTMSYEYWGQGTKVTVSS", "polyreactivity (PSR sort gate)": "high polyreactivity"},
      {"sequence": "QVQLVESGGGLVQAGGSLRLSCAASGFIFRAYTMGWYRQAPGKERELVAAITSGSSTNYADSVKGRFTISRDNAKNTVYLQMNSLKPEDTAVYYCNTDWVWLIIEYDYWGQGTQVTVSS", "polyreactivity (PSR sort gate)": "low polyreactivity"},
      {"sequence": "QVQLVESGGGLVQAGGSLRLSCAASGFIFRDNAMGWYRQAPGKERELVAAISERGGRTYYADSVKGRFTISRDNAKNTVYLQMNSLKPEDTAVYYCAAKTIYDTRGIRHYYWGQGTQVTVSS", "polyreactivity (PSR sort gate)": "high polyreactivity"},
      {"sequence": "QVQLVESGGGLVQAGGSLRLSCAASGFIFRGNTMGWYRQAPGKERELVAAISASGGSTYYADSVKGRFTISRDNAKNTVYLQMNSLKPEDTAVYYCNVAVIYRSRTYWYGMDYWGQGTQLTVSS", "polyreactivity (PSR sort gate)": "high polyreactivity"},
      {"sequence": "QVQLVESGGGLVQAGGSLRLSCAASGFIFRGYAMGWYRQAPGKERELVAAISRSGGSTYYADSVKGRFTISRDNAKNTVYLQMNSLKPEDTAVYFCAVALFETGHYYWGQGTQVTVSS", "polyreactivity (PSR sort gate)": "high polyreactivity"},
      {"sequence": "QVQLVESGGGLVQAGGSLRLSCAASGFIFRGYAMGWYRQAPGKERELVAAISRSGGSTYYADSVKGRFTISRDNAKNTVYLQMNSLKPEDTAVYYCAARSFYSKGYDYWGQGTQVTVSS", "polyreactivity (PSR sort gate)": "high polyreactivity"},
      {"sequence": "QVQLVESGGGLVQAGGSLRLSCAASGFIFRGYAMGWYRQAPGKERELVAAITYSTGNTYYADSVKGRFTISRDNAKNTVYLQMNSLKPEDTAVYYCNKVVRKFIGGYVYYSGGYWGQGTQVTVSS", "polyreactivity (PSR sort gate)": "low polyreactivity"},
      {"sequence": "QVQLVESGGGLVQAGGSLRLSCAASGFIFRKYTMGWYRQAPGKERELVATIDSSGGSTYYADSVKGRFTISRDNAKNTVYLQMNSLKPEDTAVYYCNADLRELSPWYWYSGEMDYWGQGTQVTVSS", "polyreactivity (PSR sort gate)": "low polyreactivity"},
      {"sequence": "QVQLVESGGGLVQAGGSLRLSCAASGFIFRLNAMGWYTQAPGKERELVATITSSGSTSYADSVKGRFTISRDNAKNTVYLQMNSLKPEDTAVYYCAARRLRYRYPLYSRNYWGQGTQVTVSS", "polyreactivity (PSR sort gate)": "high polyreactivity"},
      {"sequence": "QVQLVESGGGLVQAGGSLRLSCAASGFIFRLYALGWYRQAPGKERELVAAIRSAGSTYYADSVKGRFTISRDNAKNTVYLQMNSLKPEDTPVYYCAARSGHTYYFIGNYWGQGTQVTVSS", "polyreactivity (PSR sort gate)": "high polyreactivity"},
      {"sequence": "QVQLVESGGGLVQAGGSLRLSCAASGFIFRLYAMGLYRQAPGKERELVAAITTSGDSTYYADSVKGRFTISRDNSKNTFYLQMNCLKPEDTAVYYCAARYYYPPKRGYWGQGSQVTVSS", "polyreactivity (PSR sort gate)": "high polyreactivity"},
      {"sequence": "QVQLVESGGGLVQAGGSLRLSCAASGFIFRPNAMGWYRQAPGKERELVAAITGRSGSTNYADSVKGRFTISRDNAKNTVYLQMNSLKPEDTAVYYCAARVWQGYYPGYYYWGQGTQVTVSS", "polyreactivity (PSR sort gate)": "high polyreactivity"},
      {"sequence": "QVQLVESGGGLVQAGGSLRLSCAASGFIFRPYTMGWYRQAPGKERELVAAITSGGSTYYADSVKGRFTISRDNAKNTVYLQMNSLKPEDTAVYYCAARYQLYRRGYDYWGQGTQVTVSS", "polyreactivity (PSR sort gate)": "high polyreactivity"},
      {"sequence": "QVQLVESGGGLVQAGGSLRLSCAASGFIFRRNAMGWYRQAPGKERELVATISSGVGTYYADSVKGRFTISRDNAKNTVYLQMNSLKPEDTAVYYCATLVHYLYTGYRAYYSYRLDYWGQGTQVTVSS", "polyreactivity (PSR sort gate)": "high polyreactivity"},
      {"sequence": "QVQLVESGGGLVQAGGSLRLSCAASGFIFRRNVMGWYRQAPGKERELVAAISRSGASTYYADSVKGRFTISRDNAKNTVYLQMNSLKPEDTAVYYCNKRDKVTYSYDYWGQGTQVTVSS", "polyreactivity (PSR sort gate)": "high polyreactivity"},
      {"sequence": "QVQLVESGGGLVQAGGSLRLSCAASGFIFRRYAMGWYRPAPGKVWELVAAITLRGGSTYYADSVKGRFTISRDNAKNTVYLQMNSLKPEATAVYYCAAGVRGQHDGYYWGQGTQETVSS", "polyreactivity (PSR sort gate)": "high polyreactivity"},
      {"sequence": "QVQLVESGGGLVQAGGSLRLSCAASGFIFRRYAMGWYRQAPGKERELVAAISGSGGRTYYADSVKGRFTISRDNAKNTVYLQMNSLKPEDTAVYYCAATYQYLKSGYYWGQGTQVTVSS", "polyreactivity (PSR sort gate)": "high polyreactivity"},
      {"sequence": "QVQLVESGGGLVQAGGSLRLSCAASGFIFRRYAMGWYRQAPGKERELVAAITWSGGSTYYADSVKGRFTISRDNAKNTVYLQMNSLKPEDTAVYYCNRASLPSVWGYDYWGQGTQVTVSS", "polyreactivity (PSR sort gate)": "high polyreactivity"},
      {"sequence": "QVQLVESGGGLVQAGGSLRLSCAASGFIFRRYAMGWYRQAPGKERELVAIITSGVRTYYADSVKGRFTISRDNAKNTVYLQMNSLKPEDTAVYYCASRVKDYPEYDYWGQGTQVTVSS", "polyreactivity (PSR sort gate)": "low polyreactivity"},
      {"sequence": "QVQLVESGGGLVQAGGSLRLSCAASGFIFRRYAMGWYRQAPGKERELVAVIRSSGGSTYYADSVKGRFTISRDNAKNTVYLQMNSLKPEDTAVYYCAAVDARSGGYYWTLRYYYWGQGTQVTVSS", "polyreactivity (PSR sort gate)": "high polyreactivity"},
      {"sequence": "QVQLVESGGGLVQAGGSLRLSCAASGFIFRRYTMGWYRQAPGKERELVAAISSRGGSTYYADSVKGRFTISRDNAKNTVYLQMNSLKPEDTAVYYCNAGLGVRRRYDYWGQGTQVTVSS", "polyreactivity (PSR sort gate)": "high polyreactivity"},
      {"sequence": "QVQLVESGGGLVQAGGSLRLSCAASGFIFRSNAMGLYRQAPGKEREFVAAISSRGGSTTYEDSVKGRFTISRDNAKNTVYLQMNSLKPEDTAVYYCARDWYYYPQYRQRYYYWGQGTQVTVSS", "polyreactivity (PSR sort gate)": "high polyreactivity"},
      {"sequence": "QVQLVESGGGLVQAGGSLRLSCAASGFIFRSYAMGWYRQAPGKERELVAAITHTGTTYYADSVKGRFTISRDNAKNSVYLQMNSLKPEDTAVYYCNANYYRTHYVYWGQGTQVTVSS", "polyreactivity (PSR sort gate)": "high polyreactivity"},
      {"sequence": "QVQLVESGGGLVQAGGSLRLSCAASGFIFRSYAMGWYRQAPGKERELVAANSSSGGRTYYADSVKGRFTISRDNAKNTVYLQMNSLKPEDTAVYYCATSLYTDNSWDNYWGQGTQVTVSS", "polyreactivity (PSR sort gate)": "high polyreactivity"},
      {"sequence": "QVQLVESGGGLVQAGGSLRLSCAASGFIFRTYAMGWYRQAPGKERELVAAISGTTGSTYYADSVKGRFTISRDNAKYTVYLQMNSLKPEDTAVYFCAADYYWYIRYDYWGQGTQVTVSS", "polyreactivity (PSR sort gate)": "low polyreactivity"},
      {"sequence": "QVQLVESGGGLVQAGGSLRLSCAASGFIFRTYAMGWYRQAPGKERELVAAISRGGGTTYYADSVKGRFTISRDNAKNTVYFQMNSLKPEDTAFYYCAAYSQYLKRDYWGQGTQVTVSS", "polyreactivity (PSR sort gate)": "high polyreactivity"},
      {"sequence": "QVQLVESGGGLVQAGGSLRLSCAASGFIFRTYAMGWYRQEPGKERELVAAITYSAGSTYYADSVKGRFTISRDNAKNTVYLQMNSLKPEDTADYYCNVRKTWYGYSVTGRYDYWGQGTQVTVSS", "polyreactivity (PSR sort gate)": "low polyreactivity"},
      {"sequence": "QVQLVESGGGLVQAGGSLRLSCAASGFIFRTYSMGWYRQAPGKERELVAAISGTTGSTYYADSVKGRFTISRDNAKNTVYLQMNRLKPEDTAVYYCAADYYWYIRYDYWGQGTQVTVSS", "polyreactivity (PSR sort gate)": "low polyreactivity"}
    ]}
  ]
}
